This is an account of results in patent publication US20160289299A1.

In data set [1] the test system is ^superFVa (recombinant super factor five, thrombin-activated).
The target of data set [2] is recombinant human wild-type FVa (UniProt P12259).
Data set [3] has as its target ^superFVa (recombinant super factor five, thrombin-activated) (human) (UniProt P12259). Briefly: cell-based or functional assay.
For data set [4], the target named is recombinant human wild-type FVa (UniProt P12259). In words: cell-based or functional assay.

Sequence of ^superFVa (recombinant super factor five, thrombin-activated) (chain, as listed by the source): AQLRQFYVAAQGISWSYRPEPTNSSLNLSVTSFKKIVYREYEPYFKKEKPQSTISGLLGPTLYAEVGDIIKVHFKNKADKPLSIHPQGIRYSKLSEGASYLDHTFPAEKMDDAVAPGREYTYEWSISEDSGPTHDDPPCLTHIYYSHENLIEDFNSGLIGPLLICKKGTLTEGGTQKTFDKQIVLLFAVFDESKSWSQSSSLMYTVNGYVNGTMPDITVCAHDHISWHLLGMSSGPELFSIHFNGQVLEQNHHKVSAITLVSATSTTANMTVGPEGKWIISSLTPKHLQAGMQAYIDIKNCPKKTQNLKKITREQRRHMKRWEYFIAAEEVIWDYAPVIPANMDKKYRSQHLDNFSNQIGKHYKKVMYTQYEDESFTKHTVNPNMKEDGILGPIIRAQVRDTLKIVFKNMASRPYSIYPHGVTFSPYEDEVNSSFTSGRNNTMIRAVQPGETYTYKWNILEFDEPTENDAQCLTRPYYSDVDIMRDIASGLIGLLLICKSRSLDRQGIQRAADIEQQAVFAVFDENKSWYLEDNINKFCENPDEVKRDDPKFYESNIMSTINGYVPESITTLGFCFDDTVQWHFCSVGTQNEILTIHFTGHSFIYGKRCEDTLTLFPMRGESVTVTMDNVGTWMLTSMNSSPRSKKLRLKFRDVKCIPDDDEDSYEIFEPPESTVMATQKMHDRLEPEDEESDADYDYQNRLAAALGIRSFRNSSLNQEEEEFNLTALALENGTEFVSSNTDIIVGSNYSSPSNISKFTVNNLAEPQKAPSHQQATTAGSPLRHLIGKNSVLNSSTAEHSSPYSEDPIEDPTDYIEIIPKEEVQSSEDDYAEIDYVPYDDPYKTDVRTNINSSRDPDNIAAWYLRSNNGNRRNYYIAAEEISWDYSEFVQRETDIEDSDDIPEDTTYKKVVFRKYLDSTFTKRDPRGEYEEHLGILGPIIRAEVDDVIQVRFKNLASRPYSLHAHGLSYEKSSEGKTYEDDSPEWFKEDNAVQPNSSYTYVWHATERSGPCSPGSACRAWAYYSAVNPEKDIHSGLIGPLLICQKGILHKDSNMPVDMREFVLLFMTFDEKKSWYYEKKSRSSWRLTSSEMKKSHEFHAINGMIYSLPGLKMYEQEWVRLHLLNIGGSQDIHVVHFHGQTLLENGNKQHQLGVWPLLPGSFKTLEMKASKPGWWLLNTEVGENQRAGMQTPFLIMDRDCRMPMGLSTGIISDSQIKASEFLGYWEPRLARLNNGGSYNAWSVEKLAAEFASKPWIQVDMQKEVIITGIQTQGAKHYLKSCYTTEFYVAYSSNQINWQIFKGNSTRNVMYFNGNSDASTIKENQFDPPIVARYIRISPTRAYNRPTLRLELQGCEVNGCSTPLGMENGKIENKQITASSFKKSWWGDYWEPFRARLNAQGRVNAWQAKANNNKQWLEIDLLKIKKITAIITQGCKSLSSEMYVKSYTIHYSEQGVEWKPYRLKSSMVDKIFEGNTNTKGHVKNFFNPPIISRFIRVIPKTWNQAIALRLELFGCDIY

Turning to “recombinant human Activated Protein C (Xigris)”, in data set [1], the “ETP restored in human or murine plasma in the presence of APC” value was “Only ^superFVa restored ETP to ˜90-100% in human or murine plasma at concentrations where FVa did not show effects”; the “aPTT in human plasma with APC at 0.05 U/mL FVa variant” value is “At 0.05 U/mL FVa variants, ^superFVa fully corrected the aPTT”; the “aPTT in murine plasma with human APC at 5 U/mL FVa variant” value is given as “At 5 U/mL FVa variants ^superFVa fully corrected the aPTT”; the “aPTT normalisation in human plasma with 10 nM APC, concentration relative to FVa” value is reported as “in human plasma ^superFVa normalized the aPTT at 100-fold lower concentrations compared to FVa”. Moreover, in data set [2], the “ETP restored in human or murine plasma in the presence of APC” value was “at concentrations where FVa did not show effects”, the “aPTT in human plasma with APC at 0.05 U/mL FVa variant” value was “FVa shortened the aPTT only from ˜100 to 80 seconds” and the “aPTT in murine plasma with human APC at 5 U/mL FVa variant” value was “FVa shortened the aPTT only from ˜100 to 70 seconds”.

In the case of “recombinant murine Activated Protein C (from UniProt P33587 42-460) (enzyme)”, the ex vivo whole blood aPTT after intravenous APC (0.5 mg/kg) in Balb/c mice in data set [3] turned out to be 30 s; in data set [4] it was 50 s.
